Where two headings read alike, the source gives them in different places. Each block holds one substance with its values, some of them ahead of it.
Legend:
Experiment in all cases: cell-based or functional assay
[1] = target: human CD40 on B cells in PBMC from normal human subjects (human) (UniProt P25942)
[2] = target: human CD40 on B cells within PBMC from normal human subjects (human) (UniProt P25942)
[3] = target: human CD40 on normal human B cells / PBMC (human) (UniProt P25942)
[4] = target: human CD40 on normal human B cells / PBMC (human) (UniProt P25942); remark: listed apart in the source
[5] = target: human CD40 on the cell surface (human) (UniProt P25942)
Chain of human CD40 on the cell surface (human) (P25942 20-277): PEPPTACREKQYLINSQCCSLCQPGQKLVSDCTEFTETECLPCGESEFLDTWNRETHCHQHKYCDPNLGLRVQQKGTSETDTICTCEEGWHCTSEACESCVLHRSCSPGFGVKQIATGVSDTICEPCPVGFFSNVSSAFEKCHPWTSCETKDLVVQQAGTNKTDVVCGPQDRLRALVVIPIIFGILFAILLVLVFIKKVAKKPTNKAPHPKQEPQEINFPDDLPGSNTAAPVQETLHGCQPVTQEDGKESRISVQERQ

[6] = target: CD20 on the cell surface (human) (UniProt P11836)
Chain of CD20 on the cell surface (human) (P11836 whole entry): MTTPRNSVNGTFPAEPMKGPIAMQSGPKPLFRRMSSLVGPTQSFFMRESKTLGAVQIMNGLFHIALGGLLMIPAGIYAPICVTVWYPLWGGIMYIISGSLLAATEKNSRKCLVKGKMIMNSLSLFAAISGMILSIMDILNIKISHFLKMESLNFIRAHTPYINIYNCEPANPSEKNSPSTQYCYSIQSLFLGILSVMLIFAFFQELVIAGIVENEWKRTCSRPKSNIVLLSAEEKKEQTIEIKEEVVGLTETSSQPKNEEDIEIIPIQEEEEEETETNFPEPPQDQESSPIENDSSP

Chain of human CD40 on B cells within PBMC from normal human subjects (human) (P25942 20-277): as the sequence (P25942 20-277) above
Chain of human CD40 on normal human B cells / PBMC (human) (P25942 20-277): as above
Chain of human CD40 on B cells in PBMC from normal human subjects (human) (P25942 20-277): as above

- Average SI of PBMC, index(1), PBMC+CHO-CD40L [1]: 5.09
- CPM, PBMC+CHO-CD40L (PBMC-010) [1]: 5280 CPM
- CPM, PBMC+CHO-CD40L (PBMC-011 Donor#1) [1]: 8250 CPM
- CPM, PBMC+CHO-CD40L (PBMC-011 Donor#2) [1]: 11600 CPM
- CPM, PBMC+CHO-CD40L (PBMC-011 Donor#3) [1]: 7960 CPM
- CPM, PBMC+CHO-CD40L (PBMC-011 Donor#4) [1]: 14300 CPM
- CPM, PBMC+CHO-CD40L (PBMC-014) [1]: 8790 CPM
- CPM, PBMC+CHO-CD40L (PBMC-015 Donor#1) [1]: 12900 CPM
- CPM, PBMC+CHO-CD40L (PBMC-015 Donor#2) [1]: 19100 CPM
- CPM, PBMC+CHO-CD40L (PBMC-015 Donor#3) [1]: 19800 CPM
- CPM, PBMC+CHO-CD40L (PBMC-016) [1]: 15800 CPM
- index(1), PBMC+CHO-CD40L (PBMC-010) [1]: 3.73
- index(1), PBMC+CHO-CD40L (PBMC-011 Donor#1) [1]: 3.86
- index(1), PBMC+CHO-CD40L (PBMC-011 Donor#2) [1]: 4.87
- index(1), PBMC+CHO-CD40L (PBMC-011 Donor#3) [1]: 2.46
- index(1), PBMC+CHO-CD40L (PBMC-011 Donor#4) [1]: 3.41
- index(1), PBMC+CHO-CD40L (PBMC-014) [1]: 3.74
- index(1), PBMC+CHO-CD40L (PBMC-015 Donor#1) [1]: 3.94
- index(1), PBMC+CHO-CD40L (PBMC-015 Donor#2) [1]: 3.14
- index(1), PBMC+CHO-CD40L (PBMC-015 Donor#3) [1]: 8
- index(1), PBMC+CHO-CD40L (PBMC-016) [1]: 13.8
- Average SI of PBMC, index(1) [2]: 11.9
- Average Stimulation index, S.index (1) [2]: 22
- PBMC proliferation CPM (PBMC+CHO-CD40L), Immoblize-004 [2]: 11700 CPM
- PBMC proliferation CPM (PBMC+CHO-CD40L), PBMC-012 [2]: 6810 CPM
- PBMC proliferation CPM (PBMC+CHO-CD40L), PBMC-025 Donor#1 [2]: 42300 CPM
- PBMC proliferation CPM (PBMC+CHO-CD40L), PBMC-025 Donor#2 [2]: 15000 CPM
- PBMC proliferation CPM (PBMC+CHO-CD40L), PBMC-026 Donor#1 [2]: 18300 CPM
- PBMC proliferation CPM (PBMC+CHO-CD40L), PBMC-026 Donor#2 [2]: 18100 CPM
- PBMC proliferation CPM (PBMC+CHO-CD40L), PBMC-027 Donor#1 [2]: 13000 CPM
- PBMC proliferation CPM (PBMC+CHO-CD40L), PBMC-027 Donor#2 [2]: 11900 CPM
- PBMC proliferation CPM (PBMC+CHO-CD40L), PBMC-028 Donor#1 [2]: 22500 CPM
- PBMC proliferation CPM (PBMC+CHO-CD40L), PBMC-028 Donor#2 [2]: 54900 CPM
- PBMC proliferation CPM (PBMC+CHO-CD40L), PBMC-029 Donor#1 [2]: 10100 CPM
- PBMC proliferation CPM (PBMC+CHO-CD40L), PBMC-029 Donor#2 [2]: 23100 CPM
- PBMC proliferation CPM (PBMC+CHO-CD40L), PBMC-030 Donor#1 [2]: 57200 CPM
- PBMC proliferation CPM (PBMC+CHO-CD40L), PBMC-030 Donor#2 [2]: 53900 CPM
- PBMC proliferation CPM (PBMC+CHO-CD40L), PBMC-032 Donor#1 [2]: 15300 CPM
- PBMC proliferation S.index (1), Immoblize-004 [2]: 13.7
- PBMC proliferation S.index (1), PBMC-012 [2]: 30.3
- PBMC proliferation index(1), PBMC-025 Donor#1 [2]: 10.4
- PBMC proliferation index(1), PBMC-025 Donor#2 [2]: 6.63
- PBMC proliferation index(1), PBMC-026 Donor#1 [2]: 8.78
- PBMC proliferation index(1), PBMC-026 Donor#2 [2]: 26.7
- PBMC proliferation index(1), PBMC-027 Donor#1 [2]: 4.75
- PBMC proliferation index(1), PBMC-027 Donor#2 [2]: 8.89
- PBMC proliferation index(1), PBMC-028 Donor#1 [2]: 5.26
- PBMC proliferation index(1), PBMC-028 Donor#2 [2]: 25.6
- PBMC proliferation index(1), PBMC-029 Donor#1 [2]: 16.5
- PBMC proliferation index(1), PBMC-029 Donor#2 [2]: 2.99
- PBMC proliferation index(1), PBMC-030 Donor#1 [2]: 13.7
- PBMC proliferation index(1), PBMC-030 Donor#2 [2]: 16.2
- PBMC proliferation index(1), PBMC-032 Donor#1 [2]: 8.45
- CPM, B cells + CHO-CD40L; B cell-004 donor 2 [3]: 27200 CPM
- CPM, B cells+CHO-CD40L; B cell-004 donor 1 [3]: 3130 CPM
- CPM, B cells+CHO-CD40L; B cell-005 donor 3 [3]: 24600 CPM
- CPM, PBMC+CHO-CD40L (tritiated thymidine); PBMC-025 Donor#1 [3]: 42300 CPM
- CPM, PBMC+CHO-CD40L (tritiated thymidine); PBMC-025 Donor#2 [3]: 15000 CPM
- CPM, PBMC+CHO-CD40L (tritiated thymidine); PBMC-026 Donor#1 [3]: 19100 CPM
- CPM, PBMC+CHO-CD40L (tritiated thymidine); PBMC-026 Donor#2 [3]: 17800 CPM
- CPM, PBMC+CHO-CD40L (tritiated thymidine); PBMC-028 Donor#1 [3]: 22500 CPM
- CPM, PBMC+CHO-CD40L (tritiated thymidine); PBMC-028 Donor#2 [3]: 54900 CPM
- CPM, PBMC+CHO-CD40L (tritiated thymidine); PBMC-029 Donor#1 [3]: 10100 CPM
- CPM, PBMC+CHO-CD40L (tritiated thymidine); PBMC-029 Donor#2 [3]: 23100 CPM
- CPM, PBMC+CHO-CD40L (tritiated thymidine); PBMC-030 Donor#1 [3]: 53400 CPM
- CPM, PBMC+CHO-CD40L (tritiated thymidine); PBMC-030 Donor#2 [3]: 53800 CPM
- CPM, PBMC+CHO-CD40L (tritiated thymidine); PBMC-032 Donor#1 [3]: 14100 CPM
- Average Stimulation Index (SI), B cells+CHO-CD40L [4]: 145
- CPM, B cells+CHO-CD40L; B cell-004 donor 1 [4]: 3130 CPM
- CPM, B cells+CHO-CD40L; B cell-005 donor 3 [4]: 24600 CPM
- CPM, B cells+CHO-CD40L; donor 2 [4]: 27200 CPM
- S. index(1) = CPM (B cells+CHO-CD40L)/CPM (B cells alone); B cell-004 donor 1 [4]: 7.49
- S. index(1) = CPM (B cells+CHO-CD40L)/CPM (B cells alone); B cell-005 donor 3 [4]: 92
- S. index(1) = CPM (B cells+CHO-CD40L)/CPM (B cells alone); donor 2 [4]: 336
Substance: CD40 ligand expressed on formaldehyde-fixed CHO cells (from UniProt P29965 1-261)

- average stimulation index (SI) of PBMC proliferation [5]: 7.41
Substance: CD40 ligand on formaldehyde-fixed CHO cells (from UniProt P29965 1-261)

- % lysis - % lysis IgG1; ADCC-006, huNK E:T 2, 0.01 ug/ml [6]: 33%
- % lysis - % lysis IgG1; ADCC-006, huNK E:T 2, 0.1 ug/ml [6]: 44.6%
- % lysis - % lysis IgG1; ADCC-006, huNK E:T 2, 1 ug/ml [6]: 45.7%
- % lysis - % lysis IgG1; ADCC-006, huNK E:T 2, 10 ug/ml [6]: 37.9%
- % lysis - % lysis IgG1; ADCC-009 Calcein AM, huNK E:T 10, 0.04 ug/ml [6]: 81.5%
- % lysis - % lysis IgG1; ADCC-009 Calcein AM, huNK E:T 10, 0.2 ug/ml [6]: 90.2%
- % lysis - % lysis IgG1; ADCC-009 Calcein AM, huNK E:T 10, 1 ug/ml [6]: 87.7%
- % lysis - % lysis IgG1; ADCC-009 Calcein AM, huNK E:T 10, 5 ug/ml [6]: 83.9%
- % lysis - % lysis IgG1; ADCC-011 Calcein AM, huNK E:T 8, 0.0004 ug/ml [6]: -1.04%
- % lysis - % lysis IgG1; ADCC-011 Calcein AM, huNK E:T 8, 0.002 ug/ml [6]: 4.16%
- % lysis - % lysis IgG1; ADCC-011 Calcein AM, huNK E:T 8, 0.01 ug/ml [6]: 10.1%
- % lysis - % lysis IgG1; ADCC-011 Calcein AM, huNK E:T 8, 1 ug/ml [6]: 19.3%
- % lysis - % lysis IgG1; ADCC-012 Calcein AM, huNK E:T 10, 0.001 ug/ml [6]: 21.1%
- % lysis - % lysis IgG1; ADCC-012 Calcein AM, huNK E:T 10, 0.005 ug/ml [6]: 25.7%
- % lysis - % lysis IgG1; ADCC-012 Calcein AM, huNK E:T 10, 0.01 ug/ml [6]: 37.9%
- % lysis - % lysis IgG1; ADCC-012 Calcein AM, huNK E:T 10, 1 ug/ml [6]: 52.5%
- % lysis - % lysis IgG1; ADCC-012 Calcein AM, huNK E:T 10, 10 ug/ml [6]: 37.4%
- % lysis - % lysis IgG1; ADCC-013 51Cr, PBMC E:T 100, 0.001 ug/ml [6]: 0.35%
- % lysis - % lysis IgG1; ADCC-013 51Cr, PBMC E:T 100, 0.01 ug/ml [6]: 9.87%
- % lysis - % lysis IgG1; ADCC-013 51Cr, PBMC E:T 100, 0.1 ug/ml [6]: 24.7%
- % lysis - % lysis IgG1; ADCC-013 51Cr, PBMC E:T 100, 1 ug/ml [6]: 29.7%
- % lysis; ADCC-006, huNK E:T 2, 0.01 ug/ml [6]: 28.5%
- % lysis; ADCC-006, huNK E:T 2, 0.1 ug/ml [6]: 33.6%
- % lysis; ADCC-006, huNK E:T 2, 1 ug/ml [6]: 37.1%
- % lysis; ADCC-006, huNK E:T 2, 10 ug/ml [6]: 34.8%
- % lysis; ADCC-009 Calcein AM, huNK E:T 10, 0.04 ug/ml [6]: 84.9%
- % lysis; ADCC-009 Calcein AM, huNK E:T 10, 0.2 ug/ml [6]: 88.8%
- % lysis; ADCC-009 Calcein AM, huNK E:T 10, 1 ug/ml [6]: 88.2%
- % lysis; ADCC-011 Calcein AM, huNK E:T 8, 0.0004 ug/ml [6]: 5.99%
- % lysis; ADCC-011 Calcein AM, huNK E:T 8, 0.002 ug/ml [6]: 9.58%
- % lysis; ADCC-011 Calcein AM, huNK E:T 8, 0.01 ug/ml [6]: 14.7%
- % lysis; ADCC-011 Calcein AM, huNK E:T 8, 1 ug/ml [6]: 22.4%
- % lysis; ADCC-012 Calcein AM, huNK E:T 10, 0.001 ug/ml [6]: 33.1%
- % lysis; ADCC-012 Calcein AM, huNK E:T 10, 0.005 ug/ml [6]: 39.3%
- % lysis; ADCC-012 Calcein AM, huNK E:T 10, 0.01 ug/ml [6]: 50.2%
- % lysis; ADCC-012 Calcein AM, huNK E:T 10, 1 ug/ml [6]: 66%
- % lysis; ADCC-012 Calcein AM, huNK E:T 10, 10 ug/ml [6]: 50.8%
- % lysis; ADCC-013 51Cr, PBMC E:T 100, 0.001 ug/ml [6]: 3.13%
- % lysis; ADCC-013 51Cr, PBMC E:T 100, 0.01 ug/ml [6]: 12.8%
- % lysis; ADCC-013 51Cr, PBMC E:T 100, 0.1 ug/ml [6]: 27.2%
- % lysis; ADCC-013 51Cr, PBMC E:T 100, 1 ug/ml [6]: 32.3%
- Average % lysis at 1 ug/ml concentration of mAbs (% lysis - % lysis IgG1) [6]: 47.2%
Substance: rituximab (antibody)
